This assay deals with alternative-spliced domain A1 of human Tenascin C (human) (UniProt P24821). Put plainly: SPR (BIAcore), antibody over hTnC A1 on CM5 chip, fitted 50 nM curves. For orientation: Surface plasmon resonance follows binding to a sensor surface in real time, without labels.
Chain of UniProt P24821 (P24821 1072-1162): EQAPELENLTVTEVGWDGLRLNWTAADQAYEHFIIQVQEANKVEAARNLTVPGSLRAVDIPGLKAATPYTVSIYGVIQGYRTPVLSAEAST

B1: IgG(F16)-3S-N88Q (antibody, V domains shown)
VH: EVQLLESGGGLVQPGGSLRLSCAASGFTFSRYGMSWVRQAPGKGLEWVSAISGSGGSTYYADSVKGRFTISRDNSKNTLYLQMNSLRAEDTAVYYCAKAHNAFDYWGQGTLVTVSS
VL: SSELTQDPAVSVALGQTVRITCQGDSLRSYYASWYQQKPGQAPVLVIYGKNNRPSGIPDRFSGSSSGNTASLTITGAQAEDEADYYCQSSVYTMPPVVFGGGTKLTVLG
modifications: glycosylated Heavy Chain (site not given)
Regarding B1, the fold lower apparent KD than wild-type IgG(F16)-3S was in the range of 4 to 8 fold.

For the origin of these results see patent US20190127451A1.
